Measurements as given in publication PMC5897525 (2018).

Experiments:
[1] = biological target: recombinant Fel d 1 produced with a myc-myc-hexahistidine tag (rFel d 1.mmh) (cat, UniProt P30440-1 18-109; P30438 23-92); assay: SPR; 25°C
rFel d 1.mFc = assay: SPR; 25°C; dimeric

recombinant Fel d 1 produced with a myc-myc-hexahistidine tag (rFel d 1.mmh), sequence (P30440 other isoform, or with tags, fused parts or gaps): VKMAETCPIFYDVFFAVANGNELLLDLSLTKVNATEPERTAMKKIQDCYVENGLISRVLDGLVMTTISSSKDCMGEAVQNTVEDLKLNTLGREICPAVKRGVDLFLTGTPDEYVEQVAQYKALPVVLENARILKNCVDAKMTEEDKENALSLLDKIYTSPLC

Kd [1]: 912 pM
Kd (rFel d 1.mFc): 97.8 pM
B1: REGN1909 (antibody, V domains shown)
VH: EVQLVESGGGLVQPGGSLRLSCAASGFTFSSYAMSWVRQAPGKGLEWVSAISGRGYNADYADSVKGRFTISRDNSKNTLYLQMNSLRAEDTAVYYCAKLEYFDYWGQGTLVTVSS
VL: DIQMTQSPSTLSASVGDRVTITCRASQSISSWLAWYQQKPGKAPKLLIYKASSLESGVPSRFSGSGSGTDFTLTISSLRPEDFATYYCQQYNSYPLTFGGGTKVEIK
